Measurements from patent publication US20170058319A1, “NANOSENSOR FOR ASSESSING THROMBIN INHIBITORS” (VIRGINIA COMMONWEALTH UNIVERSITY, priority 2014, published 2017).

How the values were obtained:
[1] = target: Au-TH nanoprobe (gold nanoparticles covalently linked to bovine α-thrombin) (bovine) (UniProt P00735); experiment: displacement of HirP from the Au-TH nanoprobe by AT at 1 µM, 1 h incubation
[2] = target: Au-TH nanoprobe (gold nanoparticles covalently linked to bovine α-thrombin) (bovine) (UniProt P00735); experiment: displacement of HirP from the Au-TH nanoprobe by AT at 10 µM, 1 h incubation
[3] = target: Au-TH nanoprobe (gold nanoparticles covalently linked to bovine α-thrombin) (bovine) (UniProt P00735); experiment: displacement of HirP from the Au-TH nanoprobe by AT at 100 µM, 1 h incubation
[4] = target: Au-TH nanoprobe (gold nanoparticles covalently linked to bovine α-thrombin) (bovine) (UniProt P00735); experiment: cell-based or functional assay

Antithrombin (AT), sequence (P01008 33-464): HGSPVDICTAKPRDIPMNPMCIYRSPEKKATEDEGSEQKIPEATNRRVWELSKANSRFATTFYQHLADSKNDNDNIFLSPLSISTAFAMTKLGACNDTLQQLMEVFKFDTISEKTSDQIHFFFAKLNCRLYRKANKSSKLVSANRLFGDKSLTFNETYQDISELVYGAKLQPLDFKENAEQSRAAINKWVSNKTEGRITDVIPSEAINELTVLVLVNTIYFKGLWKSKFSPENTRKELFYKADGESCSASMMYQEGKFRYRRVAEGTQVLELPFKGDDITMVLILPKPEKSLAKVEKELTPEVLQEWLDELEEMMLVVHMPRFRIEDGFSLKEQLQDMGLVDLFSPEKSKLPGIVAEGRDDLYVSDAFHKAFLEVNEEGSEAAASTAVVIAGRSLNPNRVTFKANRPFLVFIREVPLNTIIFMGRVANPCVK

increase in fluorescence at 525 nm [1]: 40% | increase in fluorescence at 525 nm [2]: 25% | increase in fluorescence at 525 nm [3]: 20% | neutralization of surface bound thrombin (chromogenic substrate hydrolysis) [4]: < 60%
Substance: Antithrombin (AT)
